Measurements as given in the supplement of paper PMC10065799, “High-throughput profiling of sequence recognition by tyrosine kinases and SH2 domains using bacterial peptide display” (eLife, 2023).

Tests used:
[1] = molecular target: EPHB1 (UniProt P54762); assay: phosphorylation enrichment, bacterial display (enrichment ratio); higher = better substrate or ligand; peptides without Tyr show the background
[2] = tested on: c-Abl (mouse); assay: as above
[3] = molecular target: MERTK (UniProt Q12866); assay: as above
Sequence of MERTK (Q12866 whole entry, looked up): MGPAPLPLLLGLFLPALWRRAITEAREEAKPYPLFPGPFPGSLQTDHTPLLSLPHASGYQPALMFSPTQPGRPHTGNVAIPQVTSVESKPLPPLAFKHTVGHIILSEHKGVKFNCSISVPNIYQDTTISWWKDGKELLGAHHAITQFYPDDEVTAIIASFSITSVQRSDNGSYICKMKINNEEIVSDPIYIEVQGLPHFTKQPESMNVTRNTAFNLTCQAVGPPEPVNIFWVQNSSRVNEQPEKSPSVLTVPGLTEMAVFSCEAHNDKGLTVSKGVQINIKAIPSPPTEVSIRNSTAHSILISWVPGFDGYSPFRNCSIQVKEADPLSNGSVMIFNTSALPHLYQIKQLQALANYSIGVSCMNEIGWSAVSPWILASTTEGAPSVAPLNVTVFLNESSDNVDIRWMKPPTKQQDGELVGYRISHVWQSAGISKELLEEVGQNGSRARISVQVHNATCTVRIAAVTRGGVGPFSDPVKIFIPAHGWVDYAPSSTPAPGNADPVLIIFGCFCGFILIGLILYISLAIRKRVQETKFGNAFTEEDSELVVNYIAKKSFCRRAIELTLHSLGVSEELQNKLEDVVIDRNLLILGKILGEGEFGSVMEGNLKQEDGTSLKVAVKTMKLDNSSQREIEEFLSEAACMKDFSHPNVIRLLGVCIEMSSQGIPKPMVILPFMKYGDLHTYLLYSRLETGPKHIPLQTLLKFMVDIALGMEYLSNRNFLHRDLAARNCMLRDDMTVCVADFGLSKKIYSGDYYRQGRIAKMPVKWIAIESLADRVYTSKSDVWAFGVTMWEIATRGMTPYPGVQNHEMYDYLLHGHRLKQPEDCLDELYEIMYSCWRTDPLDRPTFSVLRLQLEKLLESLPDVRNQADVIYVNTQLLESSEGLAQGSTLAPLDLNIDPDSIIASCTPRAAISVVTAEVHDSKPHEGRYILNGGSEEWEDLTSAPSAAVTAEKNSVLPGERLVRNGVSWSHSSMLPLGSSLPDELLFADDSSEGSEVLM

[4] = molecular target: FGFR3 (UniProt P22607); assay: as above
[5] = tested on: AncSZ; assay: as above
[6] = molecular target: Jak2 (UniProt O60674); assay: as above
Sequence of Jak2 (O60674 whole entry, looked up): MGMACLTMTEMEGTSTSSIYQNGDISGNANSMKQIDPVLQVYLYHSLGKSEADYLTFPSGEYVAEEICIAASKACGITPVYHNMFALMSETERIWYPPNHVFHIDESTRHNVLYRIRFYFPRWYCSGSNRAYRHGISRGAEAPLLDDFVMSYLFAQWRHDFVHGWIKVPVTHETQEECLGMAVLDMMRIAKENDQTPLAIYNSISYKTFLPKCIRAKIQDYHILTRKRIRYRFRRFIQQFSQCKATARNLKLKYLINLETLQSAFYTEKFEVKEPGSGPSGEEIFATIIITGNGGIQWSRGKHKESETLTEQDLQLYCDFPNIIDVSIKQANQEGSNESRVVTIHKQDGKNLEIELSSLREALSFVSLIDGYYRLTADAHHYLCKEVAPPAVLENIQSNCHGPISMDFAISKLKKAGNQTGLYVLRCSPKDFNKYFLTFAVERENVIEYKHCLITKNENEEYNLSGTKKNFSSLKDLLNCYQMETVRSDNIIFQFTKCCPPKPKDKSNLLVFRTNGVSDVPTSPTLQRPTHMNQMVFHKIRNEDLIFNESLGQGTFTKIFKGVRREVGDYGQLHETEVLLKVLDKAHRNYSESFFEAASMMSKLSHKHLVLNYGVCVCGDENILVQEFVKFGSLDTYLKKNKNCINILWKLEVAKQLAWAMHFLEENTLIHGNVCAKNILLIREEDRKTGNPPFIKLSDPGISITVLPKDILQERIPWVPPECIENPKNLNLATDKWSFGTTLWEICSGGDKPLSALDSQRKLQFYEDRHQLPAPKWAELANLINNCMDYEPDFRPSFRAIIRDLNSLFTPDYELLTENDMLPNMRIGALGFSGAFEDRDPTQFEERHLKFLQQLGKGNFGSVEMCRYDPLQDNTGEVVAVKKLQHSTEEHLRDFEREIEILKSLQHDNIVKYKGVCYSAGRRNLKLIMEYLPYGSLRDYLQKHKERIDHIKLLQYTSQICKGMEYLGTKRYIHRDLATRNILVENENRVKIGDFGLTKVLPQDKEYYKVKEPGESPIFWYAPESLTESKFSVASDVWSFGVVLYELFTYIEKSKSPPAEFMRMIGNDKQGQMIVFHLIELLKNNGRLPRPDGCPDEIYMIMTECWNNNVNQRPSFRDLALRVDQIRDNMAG

[7] = molecular target: Fes (UniProt P07332); assay: as above
Sequence of Fes (P07332 whole entry, looked up): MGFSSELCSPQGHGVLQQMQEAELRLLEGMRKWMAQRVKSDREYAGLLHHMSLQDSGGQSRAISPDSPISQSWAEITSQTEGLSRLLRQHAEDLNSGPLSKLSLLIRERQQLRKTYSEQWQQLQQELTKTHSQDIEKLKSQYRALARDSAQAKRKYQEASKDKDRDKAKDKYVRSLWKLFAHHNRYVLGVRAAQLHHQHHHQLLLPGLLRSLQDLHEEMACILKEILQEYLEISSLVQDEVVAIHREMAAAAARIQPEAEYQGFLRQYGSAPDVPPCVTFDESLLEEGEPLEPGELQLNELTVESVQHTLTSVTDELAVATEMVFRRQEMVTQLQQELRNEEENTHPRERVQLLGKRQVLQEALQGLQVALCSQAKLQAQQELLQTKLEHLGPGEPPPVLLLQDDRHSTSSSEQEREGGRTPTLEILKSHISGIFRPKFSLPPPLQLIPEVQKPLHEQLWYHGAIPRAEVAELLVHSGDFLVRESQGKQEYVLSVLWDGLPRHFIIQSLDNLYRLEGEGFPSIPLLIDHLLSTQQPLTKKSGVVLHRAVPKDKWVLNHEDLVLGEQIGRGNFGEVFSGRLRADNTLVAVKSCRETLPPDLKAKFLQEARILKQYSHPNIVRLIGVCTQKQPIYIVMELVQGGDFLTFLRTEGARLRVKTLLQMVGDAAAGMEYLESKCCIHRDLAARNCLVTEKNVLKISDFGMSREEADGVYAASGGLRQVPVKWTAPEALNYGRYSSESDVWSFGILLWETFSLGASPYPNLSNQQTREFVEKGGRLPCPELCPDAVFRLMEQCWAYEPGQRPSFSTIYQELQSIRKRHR

[8] = tested on: c-Src; assay: as above
[9] = molecular target: Hck (UniProt P08631); assay: as above
Sequence of Hck (P08631 whole entry, looked up): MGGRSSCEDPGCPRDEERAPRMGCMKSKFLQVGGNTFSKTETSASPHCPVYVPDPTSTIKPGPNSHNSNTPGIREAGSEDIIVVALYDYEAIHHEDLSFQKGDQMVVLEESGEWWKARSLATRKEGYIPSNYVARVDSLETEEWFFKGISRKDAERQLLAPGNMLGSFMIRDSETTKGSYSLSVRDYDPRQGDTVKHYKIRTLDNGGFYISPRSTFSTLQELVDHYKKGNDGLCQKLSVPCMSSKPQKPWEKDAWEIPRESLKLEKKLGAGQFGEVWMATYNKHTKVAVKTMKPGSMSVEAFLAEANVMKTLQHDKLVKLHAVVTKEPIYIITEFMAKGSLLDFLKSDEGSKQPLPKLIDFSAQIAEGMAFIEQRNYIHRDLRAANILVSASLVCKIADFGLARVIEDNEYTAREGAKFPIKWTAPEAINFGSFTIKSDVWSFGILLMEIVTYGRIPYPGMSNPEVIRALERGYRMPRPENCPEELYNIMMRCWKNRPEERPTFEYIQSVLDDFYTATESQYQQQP

[10] = molecular target: FGFR1 (UniProt P11362); assay: as above
Sequence of FGFR1 (P11362 whole entry, looked up): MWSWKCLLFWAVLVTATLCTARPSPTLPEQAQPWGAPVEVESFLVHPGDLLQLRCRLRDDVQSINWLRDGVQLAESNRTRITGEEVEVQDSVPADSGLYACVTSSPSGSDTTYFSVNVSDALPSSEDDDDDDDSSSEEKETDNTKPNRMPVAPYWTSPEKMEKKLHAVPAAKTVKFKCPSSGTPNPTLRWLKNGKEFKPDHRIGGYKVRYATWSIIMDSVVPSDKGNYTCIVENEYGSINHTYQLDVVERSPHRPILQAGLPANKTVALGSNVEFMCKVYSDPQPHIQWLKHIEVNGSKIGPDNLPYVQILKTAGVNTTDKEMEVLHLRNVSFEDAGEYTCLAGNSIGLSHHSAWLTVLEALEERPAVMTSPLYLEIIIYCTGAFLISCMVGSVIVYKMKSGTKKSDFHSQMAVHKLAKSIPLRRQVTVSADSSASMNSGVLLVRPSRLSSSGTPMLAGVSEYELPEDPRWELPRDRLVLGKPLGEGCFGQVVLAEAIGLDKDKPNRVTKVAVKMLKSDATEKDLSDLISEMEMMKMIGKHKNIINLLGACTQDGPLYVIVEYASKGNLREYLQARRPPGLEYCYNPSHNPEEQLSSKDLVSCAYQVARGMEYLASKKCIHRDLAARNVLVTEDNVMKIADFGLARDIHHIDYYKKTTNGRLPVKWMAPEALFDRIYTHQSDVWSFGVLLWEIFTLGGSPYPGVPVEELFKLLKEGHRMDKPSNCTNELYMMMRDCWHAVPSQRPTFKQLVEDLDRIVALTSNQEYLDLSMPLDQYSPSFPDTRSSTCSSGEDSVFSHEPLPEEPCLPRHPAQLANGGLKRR

[11] = molecular target: Fyn (UniProt P06241); assay: as above
Sequence of Fyn (P06241 whole entry, looked up): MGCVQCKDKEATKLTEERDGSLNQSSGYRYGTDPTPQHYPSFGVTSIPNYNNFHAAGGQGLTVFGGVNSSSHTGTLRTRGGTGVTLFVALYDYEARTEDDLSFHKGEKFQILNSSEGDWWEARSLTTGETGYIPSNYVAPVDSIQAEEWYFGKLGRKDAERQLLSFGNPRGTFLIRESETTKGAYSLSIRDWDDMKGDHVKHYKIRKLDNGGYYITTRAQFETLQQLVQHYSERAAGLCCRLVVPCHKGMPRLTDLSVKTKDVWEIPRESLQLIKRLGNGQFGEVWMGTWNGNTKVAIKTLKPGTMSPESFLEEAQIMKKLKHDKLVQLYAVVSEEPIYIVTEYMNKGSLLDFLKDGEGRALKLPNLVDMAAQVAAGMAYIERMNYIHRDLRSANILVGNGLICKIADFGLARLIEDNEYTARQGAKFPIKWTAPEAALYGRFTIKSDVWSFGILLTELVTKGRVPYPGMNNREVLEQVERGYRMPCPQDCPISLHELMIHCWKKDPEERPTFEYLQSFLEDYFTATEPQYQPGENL

[12] = molecular target: EPHB2 (UniProt P29323); assay: as above
[13] = tested on: Fer (mouse); assay: as above
[14] = molecular target: SHP2-C SH2; assay: SH2 binding enrichment of the phosphorylated peptide, bacterial display (enrichment ratio); higher = better substrate or ligand; peptides without Tyr show the background
[15] = molecular target: c-Src SH2; assay: as above
[16] = molecular target: Grb2 SH2 (UniProt P62993); assay: as above
Sequence of Grb2 SH2 (P62993 whole entry, looked up, the tested form may be a part): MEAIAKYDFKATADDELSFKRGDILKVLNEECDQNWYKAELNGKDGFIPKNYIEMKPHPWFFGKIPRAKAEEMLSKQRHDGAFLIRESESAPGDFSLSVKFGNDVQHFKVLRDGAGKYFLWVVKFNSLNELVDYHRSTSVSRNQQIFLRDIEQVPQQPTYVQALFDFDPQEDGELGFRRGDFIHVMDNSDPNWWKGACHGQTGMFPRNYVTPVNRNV
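Wherever SH2 binding enrichment of the phosphorylated peptide, bacterial display is given: peptide library displayed on the E. coli surface as eCPX fusions, selected cells deep-sequenced, score is each peptide's frequency after selection divided by its frequency in the input.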
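Wherever phosphorylation enrichment, bacterial display is given: 11-residue human phosphosite peptides and single-mutation variants displayed on the E. coli surface, counted by deep sequencing, each peptide's frequency after selection divided by its frequency in the unselected input library; frequency after pTyr selection over input frequency; kinase dosed for 20-30% of maximal phosphorylation in three min.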

Sequence | phosphorylation enrichment [1] | phosphorylation enrichment [2] | phosphorylation enrichment [3] | phosphorylation enrichment [4] | phosphorylation enrichment [5] | phosphorylation enrichment [6] | phosphorylation enrichment [7] | phosphorylation enrichment [8] | phosphorylation enrichment [9] | phosphorylation enrichment [10] | phosphorylation enrichment [11] | phosphorylation enrichment [12] | phosphorylation enrichment [13] | SH2 binding enrichment [14] | SH2 binding enrichment [15] | SH2 binding enrichment [16]
RFLRGYHQDAF [HLA-A_Y137_R138H_YF] | 0.591 | 1.33 | 0.645 | 0.628 | 1.66 | 0.815 | 0.886 | 0.81 | 0.553 | 0.578 | 0.569 | 0.622 | 0.569 | 0.614 | 0.53 | 0.935
RFVVLYDAELT [ERCC4_Y581_YF] | 1.38 | 0.876 | 0.979 | 0.763 | 1.58 | 1.72 | 1.9 | 0.807 | 0.91 | 0.841 | 0.657 | 1.15 | 0.672 | 1.31 | 0.837 | 1.61
RGNKEYEEEKR [LENG1_Y96] | 0.519 | 0.458 | 0.314 | 0.686 | 0.723 | 0.822 | 0.756 | 0.323 | 0.737 | 0.407 | 0.534 | 0.493 | 0.394 | 0.739 | 0.538 | 0.863
RGRDSYGGPPR [RBMX_Y190] | 0.427 | 0.934 | 0.632 | 0.563 | 0.744 | 0.557 | 0.734 | 0.8 | 0.64 | 0.604 | 0.721 | 0.613 | 0.589 | 0.82 | 0.519 | 1.1
RGRKVYLEGGF [PRIM2_Y201_D204G] | 0.532 | 0.719 | 0.972 | 0.446 | 0.787 | 0.796 | 0.642 | 0.803 | 0.858 | 0.355 | 0.351 | 0.431 | 0.855 | 0.27 | 0.479 | 0.941
RGRSTYFWPSP [GAGE12J_Y9_R13S_YF] | 0.468 | 0.711 | 0.947 | 0.615 | 0.669 | 0.673 | 0.564 | 0.505 | 0.824 | 0.49 | 0.511 | 0.621 | 0.504 | 0.524 | 0.491 | 0.557
RGYRVYYTPDS [PTPRF_Y450] | 1.24 | 1.3 | 3.59 | 0.634 | 1.22 | 1.93 | 1.07 | 0.947 | 1.37 | 0.784 | 0.979 | 1.04 | 1.11 | 1.27 | 5.05 | 0.707
RHEASYSSDSE [REPS1_Y116_A113E] | 0.837 | 0.662 | 0.461 | 0.841 | 1.03 | 0.784 | 1.19 | 0.427 | 0.954 | 0.722 | 0.845 | 0.591 | 0.777 | 0.686 | 0.634 | 0.861
RHLREYPDLLN [DES_Y388_Q389P] | 0.375 | 0.404 | 0.569 | 0.71 | 0.695 | 0.73 | 0.822 | 0.453 | 0.53 | 0.584 | 0.389 | 0.463 | 0.352 | 0.878 | 1.09 | 1.25
RHLREYQDLLI [DES_Y388_N393I] | 1.02 | 0.708 | 0.482 | 0.813 | 0.912 | 0.74 | 1.21 | 0.482 | 0.592 | 0.899 | 0.655 | 0.744 | 0.636 | 0.851 | 1.79 | 1.59
RHPEVYHHLGV [NVL_Y290] | 2.11 | 0.701 | 0.537 | 0.602 | 0.778 | 0.823 | 0.787 | 0.632 | 1.09 | 1.08 | 0.419 | 0.419 | 0.423 | 1.17 | 1.05 | 1
RHPLEYLRQFP [NARS2_Y138_YF] | 0.372 | 0.554 | 0.33 | 0.365 | 0.605 | 0.66 | 0.612 | 0.409 | 1.38 | 0.369 | 0.342 | 0.494 | 0.275 | 1.28 | 0.984 | 1.49
RIVTTYIWERE [DNM2_Y463_R465W] | 0.526 | 0.745 | 0.403 | 0.862 | 1.82 | 0.989 | 1.31 | 0.405 | 0.619 | 0.595 | 0.712 | 0.455 | 0.538 | 0.846 | 0.909 | 1.16
RKKEEYKMAPF [F8_Y1990_L1994P_YF] | 0.299 | 0.371 | 0.422 | 0.446 | 0.574 | 0.316 | 0.623 | 0.469 | 0.373 | 0.602 | 0.558 | 0.261 | 0.346 | 0.905 | 0.407 | 1.06
RLIEGYTGPFK [ZNF862_Y181] | 1.07 | 1.12 | 1.23 | 1.29 | 1.59 | 1.79 | 1.75 | 1.29 | 1.3 | 1.13 | 1.1 | 0.927 | 1.21 | 0.862 | 0.472 | 0.808
RLLRGYDQFAF [HLA-B_Y137_H137Y_YF] | 0.505 | 0.798 | 0.645 | 0.627 | 0.885 | 0.785 | 1.21 | 0.542 | 0.664 | 0.617 | 0.591 | 0.725 | 0.696 | 1.25 | 0.999 | 1.16
RLLVDYPWTQR [HBB_Y36_V35D] | 0.591 | 0.465 | 0.411 | 0.75 | 0.978 | 0.516 | 0.759 | 0.351 | 0.476 | 0.544 | 0.616 | 0.542 | 0.45 | 0.884 | 0.554 | 0.883

Sequence | phosphorylation enrichment [1] | phosphorylation enrichment [2] | phosphorylation enrichment [3] | phosphorylation enrichment [4] | phosphorylation enrichment [5] | phosphorylation enrichment [6] | phosphorylation enrichment [7] | phosphorylation enrichment [8] | phosphorylation enrichment [9] | phosphorylation enrichment [10] | phosphorylation enrichment [11] | phosphorylation enrichment [12] | phosphorylation enrichment [13] | SH2 binding enrichment [14] | SH2 binding enrichment [15] | SH2 binding enrichment [16]
RLLVVYPGTQR [HBB_Y36_W38G] | 0.539 | 0.739 | 0.512 | 0.703 | 0.918 | 0.836 | 0.984 | 0.48 | 0.526 | 0.544 | 0.484 | 0.683 | 0.42 | 1.27 | 1.05 | 1.48
RLLVVYPRTQR [HBB_Y36_W38R] | 0.457 | 0.799 | 0.658 | 0.525 | 1.05 | 1.07 | 1.28 | 0.484 | 0.704 | 0.685 | 0.785 | 0.81 | 0.619 | 0.429 | 0.581 | 0.799
RLLVVYPWPQR [HBG2_Y36_T39P] | 0.443 | 0.494 | 0.917 | 0.703 | 0.97 | 0.617 | 1.7 | 0.456 | 0.518 | 0.527 | 0.489 | 0.606 | 0.512 | 1.67 | 1.46 | 1.8
RLQEGYDHSFF [ESD_Y258_YF] | 0.457 | 0.728 | 0.538 | 0.57 | 1.12 | 0.85 | 0.794 | 0.824 | 0.508 | 0.52 | 0.427 | 0.364 | 0.422 | 0.622 | 1.01 | 1.1
RLQKLYLDRNL [IGFALS_Y248] | 1.4 | 1.16 | 0.868 | 0.787 | 0.812 | 1.63 | 1.23 | 0.851 | 0.975 | 0.776 | 0.811 | 0.43 | 0.795 | 0.634 | 0.393 | 0.884
RLRIDYERVSQ [DSP_Y1542] | 1.25 | 0.742 | 0.539 | 0.878 | 1.08 | 1.01 | 1.46 | 0.412 | 0.531 | 0.543 | 0.43 | 0.613 | 0.702 | 1.12 | 0.821 | 1.07
RLVVVYPWTQR [HBB_Y36_L33V] | 0.575 | 0.846 | 0.727 | 1.1 | 1.07 | 1.2 | 1.17 | 0.709 | 0.646 | 0.491 | 0.771 | 1.23 | 0.652 | 1.5 | 0.954 | 1.45
RMSRSYPTGLA [ADM_Y52_S50R] | 0.382 | 0.594 | 0.454 | 0.459 | 0.497 | 0.42 | 0.594 | 0.377 | 0.39 | 0.36 | 0.381 | 0.349 | 0.319 | 0.548 | 0.425 | 0.721
RPAFTYATLIR [FOXP3_Y342_P339A] | 2.25 | 1.4 | 1.64 | 0.868 | 1.19 | 1.55 | 1.59 | 6.49 | 3.08 | 0.817 | 2.01 | 1.17 | 0.718 | 7.65 | 1.42 | 1.66
RPPELYALMSD [ZAP70_Y569_C564R] | 14.6 | 1.81 | 15.2 | 1.36 | 2.05 | 2.28 | 2.19 | 1.84 | 2.17 | 1.44 | 1.28 | 3.94 | 1.17 | 0.895 | 1.23 | 0.958
RRAKGYPIYLY [ITGB2_Y125_D128Y] | 0.44 | 0.951 | 0.698 | 1.18 | 0.997 | 0.682 | 0.922 | 1.04 | 0.807 | 0.59 | 0.684 | 0.624 | 0.652 | 0.504 | 0.477 | 0.695
RRGFLYDSDEE [MCM2_Y137_L135F] | 0.397 | 0.679 | 0.589 | 0.458 | 0.629 | 0.812 | 0.761 | 0.625 | 0.764 | 0.429 | 0.512 | 0.686 | 0.501 | 0.564 | 0.455 | 0.802
RRGMPYGGRGD [TGM1_Y312] | 0.839 | 0.75 | 0.871 | 0.904 | 0.878 | 0.686 | 0.618 | 0.68 | 0.739 | 0.686 | 0.749 | 0.881 | 0.746 | 0.526 | 0.384 | 0.538
RRNNSYTCYTA [SLC20A2_Y386] | 1.81 | 1.02 | 0.665 | 0.536 | 1.04 | 1.24 | 1.2 | 0.865 | 0.523 | 0.645 | 0.73 | 0.678 | 0.615 | 1 | 0.526 | 0.915
RRNTCYASIAK [ACADM_Y353_Y352C] | 0.287 | 0.333 | 0.332 | 0.347 | 0.369 | 0.294 | 0.467 | 0.279 | 0.391 | 0.272 | 0.4 | 0.332 | 0.424 | 7.11 | 3.02 | 0.784
RSIGEYDVLRA [PRKDC_Y2936_G2941A] | 0.944 | 1.87 | 0.817 | 0.818 | 0.887 | 0.703 | 1.31 | 1.17 | 7.58 | 0.772 | 1.06 | 1.13 | 0.446 | 0.441 | 1.14 | 0.81
